# Assay results taken from paper PMC2797330.
# Target: CD4 on uninfected CEM-4 cells (human (endogenous in CEM-T4)) (UniProt P01730)
# Experiment: flow cytometry on cells; uninfected CEM-4 cells incubated 2 h at 4°C with gp120MN (0.24 µg/ml), washed; bound gp120 detected with HIVIG (10 µg/ml) and anti-human secondary antibody; % of cells fluorescing
substance,measurement,value
recombinant gp120MN (natural protein),"% of cells positive (gp120 bound to cells, detected with HIVIG)",96.2 % positive
